Patent US20260242492A1 (JOINT STOCK COMPANY BIOCAD, published 2026)

T1: biotinylated peptide [NH2]CEPANPSEKNSPSTQYCYSIQS[CH2CH2]biotin comprising a fragment of the human CD20 … (human, [NH2] at the N-terminus; [CH2CH2]biotin at the C-terminus (so in the source))
T1 construct: Immobilized on streptavidin (SAX) sensors; also called CD20 peptide
T1 peptide: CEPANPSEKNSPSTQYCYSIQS

B1: antibody-like molecule 08-001 (binds PD1 and CD20) (bispecific antibody, human IgG1, kappa, L234A L235A)
heavy 1: QVQLVQSGGGLVQPGGSLRLSCAASGFTFSSYWMYWVRQVPGKGLEWVSAIDTGGGRTYYADSVKGRFAISRVNAKNTMYLQMNSLRAEDTAVYYCARDEGGGTGWGVLKDWPYGLDAWGQGTLVTVSSASTKGPSVFPLAPSSKSTSGGTAALGCLVKDYFPEPVTVSWNSGALTSGVHTFPAVLQSSGLYSLSSVVTVPSSSLGTQTYICNVNHKPSNTKVDKRVEPKSCDKTHTCPPCPAPEAAGGPSVFLFPPKPKDTLYITREPEVTCVVVDVSHEDPEVKFNWYVDGVEVHNAKTKPREEQYNSTYRVVSVLTVLHQDWLNGKEYKCKVSNKALPAPIEKTISKAKGQPREPQVCTLPPSRDELTKNQVSLSCAVKGFYPSDIAVEWESNGQPENNYKTTPPVLDSDGSFFLVSKLTVDKSRWQQGNVFSCSVMHEALHNHYTQKSLSLSPGK
light 1: QPVLTQPLSVSVALGQTARITCGGNNIGSKNVHWYQQKPGQAPVLVIYRDSNRPSGIPERFSGSNSGNTATLTISRAQAGDEADYYCQVWDSSTAVFGTGTKLTVLQRTVAAPSVFIFPPSDEQLKSGTASVVCLLNNFYPREAKVQWKVDNALQSGNSQESVTEQDSKDSTYSLSSTLTLSKADYEKHKVYACEVTHQGLSSPVTKSFNRGEC
heavy 2: not shown
light 2: DIQMTQSPSSLSASVGDRVTITCRASSSVSYMHWYQQKPGKAPKPLIYAPSNLASGVPSRFSGSGSGTDFTLTISSLQPEDFATYYCQQWSFNPPTFGQGTKVEIKQRQVKPEAWLSKGPSPGPGRLQLVCHVSGFYPKPVWVMWMRGEQEQQGTQLGDILPNADWTWYLRATLDVADGEAAGLSCRVKHSSLEGQDIILYWRGSC
B2: antibody-like molecule 08-002 (binds CD20 and PD1) (bispecific antibody, human IgG1, kappa, L234A L235A)
heavy 1: EVQLVESGGGLVQPGGSLRLSCAASGYTFTSYNMHWVRQAPGKGLEWVGAIYPGNGDTSYNQKFKGRFTISVDKSKNTLYLQMNSLRAEDTAVYYCARVVYYSNSYWYFDVWGQGTLVTVSSASTKGPSVFPLAPSSKSTSGGTAALGCLVKDYFPEPVTVSWNSGALTSGVHTFPAVLQSSGLYSLSSVVTVPSSSLGTQTYICNVNHKPSNTKVDKRVEPKSCDKTHTCPPCPAPEAAGGPSVFLFPPKPKDTLYITREPEVTCVVVDVSHEDPEVKFNWYVDGVEVHNAKTKPREEQYNSTYRVVSVLTVLHQDWLNGKEYKCKVSNKALPAPIEKTISKAKGQPREPQVCTLPPSRDELTKNQVSLSCAVKGFYPSDIAVEWESNGQPENNYKTTPPVLDSDGSFFLVSKLTVDKSRWQQGNVFSCSVMHEALHNHYTQKSLSLSPGK
light 1: DIQMTQSPSSLSASVGDRVTITCRASSSVSYMHWYQQKPGKAPKPLIYAPSNLASGVPSRFSGSGSGTDFTLTISSLQPEDFATYYCQQWSFNPPTFGQGTKVEIKRTVAAPSVFIFPPSDEQLKSGTASVVCLLNNFYPREAKVQWKVDNALQSGNSQESVTEQDSKDSTYSLSSTLTLSKADYEKHKVYACEVTHQGLSSPVTKSFNRGEC
heavy 2: not shown
light 2: QPVLTQPLSVSVALGQTARITCGGNNIGSKNVHWYQQKPGQAPVLVIYRDSNRPSGIPERFSGSNSGNTATLTISRAQAGDEADYYCQVWDSSTAVFGTGTKLTVLQQRQVKPEAWLSKGPSPGPGRLQLVCHVSGFYPKPVWVMWMRGEQEQQGTQLGDILPNADWTWYLRATLDVADGEAAGLSCRVKHSSLEGQDIILYWRGSC
notes: Four distinct chains: Ocrelizumab Fab arm (hole) and Prolgolimab Fab-like arm with b2m/CD1b alpha3 dimerization unit (knob)
B3: antibody-like molecule 08-005 (binds CD20 and CSF1R) (bispecific antibody, human IgG1, kappa, L234A L235A)
heavy 1: B2 heavy 1
light 1: B2 light 1
heavy 2: not shown
light 2: QAGLTQPPSVSVAPGQTARITCGGNNIGSKSVHWYQQKPGQAPVLVVYGDSDRPSGIPERFSGSNSGNTATLTISRVEAGDEADYYCQVWDISSDHVVFGGGTQLTVLQRQVKPEAWLSKGPSPGPGRLQLVCHVSGFYPKPVWVMWMRGEQEQQGTQLGDILPNADWTWYLRATLDVADGEAAGLSCRVKHSSLEGQDIILYWRGSC
notes: Four distinct chains: Ocrelizumab Fab arm (hole) and anti-CSF1R Fab-like arm with b2m/CD1b alpha3 dimerization unit (knob)
B4: antibody-like molecule 08-003 (binds PD1 and CSF1R) (bispecific antibody, human IgG1, kappa, L234A L235A)
heavy 1: B1 heavy 1
light 1: B1 light 1
heavy 2: not shown
light 2: B3 light 2
notes: Four distinct chains: Prolgolimab Fab arm (hole) and anti-CSF1R Fab-like arm with b2m/CD1b alpha3 dimerization unit (knob)
B5: antibody-like molecule 08-004 (binds CSF1R and PD1) (bispecific antibody, human IgG1, kappa, L234A L235A)
heavy 1: QVQLVESGGGLVRPGGSLRLSCAASEFTFDDYAMSWVRQAPGKGLEWVSAISWNGGSTNYADSVKGRFTISRDNAKNSLYLQMNSLRAEDTALYYCASTVEVAHRRLYKYLEVWGQGTLVTVSSASTKGPSVFPLAPSSKSTSGGTAALGCLVKDYFPEPVTVSWNSGALTSGVHTFPAVLQSSGLYSLSSVVTVPSSSLGTQTYICNVNHKPSNTKVDKRVEPKSCDKTHTCPPCPAPEAAGGPSVFLFPPKPKDTLYITREPEVTCVVVDVSHEDPEVKFNWYVDGVEVHNAKTKPREEQYNSTYRVVSVLTVLHQDWLNGKEYKCKVSNKALPAPIEKTISKAKGQPREPQVCTLPPSRDELTKNQVSLSCAVKGFYPSDIAVEWESNGQPENNYKTTPPVLDSDGSFFLVSKLTVDKSRWQQGNVFSCSVMHEALHNHYTQKSLSLSPGK
light 1: QAGLTQPPSVSVAPGQTARITCGGNNIGSKSVHWYQQKPGQAPVLVVYGDSDRPSGIPERFSGSNSGNTATLTISRVEAGDEADYYCQVWDISSDHVVFGGGTQLTVLRTVAAPSVFIFPPSDEQLKSGTASVVCLLNNFYPREAKVQWKVDNALQSGNSQESVTEQDSKDSTYSLSSTLTLSKADYEKHKVYACEVTHQGLSSPVTKSFNRGEC
heavy 2: not shown
light 2: B2 light 2
notes: Four distinct chains: anti-CSF1R Fab arm (hole) and Prolgolimab Fab-like arm with b2m/CD1b alpha3 dimerization unit (knob)

Target: T1, biotinylated peptide …
Assay: BLI (Octet RED 384), biotinylated CD20 peptide on SAX sensors, antibody-like molecule as analyte, 1:1 model, global fit
Protocol: (§1) Experiments were carried out using a kinetic buffer solution (hereinafter referred to as 1×KB); volume fraction of added Tween 20 was 0.1%; mass fraction of added BSA (bovine serum albumin) was 0.1%; pH 7.4. Before the measurement, the ProA sensors were regenerated with a solution of 50 mM glycine and hydrochloric acid, pH 1.8 (5 seconds in the regenerating solution, 5 seconds in 1×KB, three repetitions).
In the case of biotinylated […], the peptide at a concentration of 2.5 μg/ml was immobilized on the surface of SAX sensors (High Precision Streptavidin (SAX) biosensors, ForteBio) for 300 seconds. The baseline was recorded in a 1×KB solution for 120 seconds. Sensors loaded with peptide were then immersed into wells containing the solution of antibody-like molecule (analyte) in 1×KB for 300 seconds. Measurements were performed for solutions with analyte (antibody-like molecule in case of CD20 peptide) at concentrations […] and 75 µg/ml. Complex dissociation was recorded in 1×KB for 60 seconds.
(§2) To obtain numerical values of kinetic constants (kon is the on/association rate constant, kdis is the dissociation rate constant, KD is the equilibrium dissociation constant or affinity constant), the resulting sensograms were processed according to the 1:1 interaction model using Global Fit (selection of one set of kon, kdis, KD constants to analyze several sensograms of different concentrations) of the ForteBio Octet Data Analysis 9.0 software.

| Kd [nM] | koff [s⁻¹] | kon [M⁻¹ s⁻¹] | Binder |
| --- | --- | --- | --- |
| 848 | 0.139 | 164000 | B1 |
| 845 | 0.0986 | 117000 | B2 |
| 483 | 0.0581 | 120000 | B3 |

Target: T2, extracellular domain of the human PD-1 protein (hPD1ex-H6F) (human, UniProt Q15116 21-170)
T2 construct: Made in CHO cells, molecular weight 20.6 kDa as printed; also called hPDlex-H6F
T2 sequence (Q15116 21-170 limits assumed, form in doubt): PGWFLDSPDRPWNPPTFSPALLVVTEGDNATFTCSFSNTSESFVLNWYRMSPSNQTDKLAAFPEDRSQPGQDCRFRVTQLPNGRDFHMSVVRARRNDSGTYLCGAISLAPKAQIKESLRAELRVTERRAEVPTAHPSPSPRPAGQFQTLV
Assay: BLI (Octet RED 384), antibody-like molecule on ProA sensors, hPD1ex-H6F analyte 485.4 nM, 1:1 model
Protocol: as §1
(§3) In the case of the hPDlex-H6F and hCSF1R_His antigens, the Protein A (ProA) biosensors (ForteBio) were immersed in a solution with antibody-like molecules at a concentration of 10 µg/ml for 300 seconds to immobilize same. The baseline was recorded in 1×KB for 120 seconds. Sensors loaded with the antibody-like molecule were then immersed into wells containing a solution of the target antigen (analyte) in a kinetic buffer for 300 seconds. Measurements were performed for solutions with hPDlex-H6F analyte at concentrations of 10 µg/ml (485.4 nM), for solutions with hCSF1R_His analyte at concentrations of 10 µg/ml (174.2 nM). Complex dissociation in 1×KB was then detected for 600 seconds.
as §2

| Kd [nM] | koff [s⁻¹] | kon [M⁻¹ s⁻¹] | Binder |
| --- | --- | --- | --- |
| 15.9 | 0.000601 | 37800 | B1 |
| 12.4 | 0.000487 | 39200 | B4 |
| 16.9 | 0.000658 | 39000 | B2 |
| 13.7 | 0.000568 | 41400 | B5 |

Target: T3, extracellular domain of the human CSF1R protein (hCSF1R_His) (human, UniProt P07333 20-512)
T3 construct: range 20-512; Made in CHO cells, molecular weight 57.4 kDa as printed; not shown: C-terminal His-tag and FLAG-tag
T3 sequence (P07333 20-512 limits assumed): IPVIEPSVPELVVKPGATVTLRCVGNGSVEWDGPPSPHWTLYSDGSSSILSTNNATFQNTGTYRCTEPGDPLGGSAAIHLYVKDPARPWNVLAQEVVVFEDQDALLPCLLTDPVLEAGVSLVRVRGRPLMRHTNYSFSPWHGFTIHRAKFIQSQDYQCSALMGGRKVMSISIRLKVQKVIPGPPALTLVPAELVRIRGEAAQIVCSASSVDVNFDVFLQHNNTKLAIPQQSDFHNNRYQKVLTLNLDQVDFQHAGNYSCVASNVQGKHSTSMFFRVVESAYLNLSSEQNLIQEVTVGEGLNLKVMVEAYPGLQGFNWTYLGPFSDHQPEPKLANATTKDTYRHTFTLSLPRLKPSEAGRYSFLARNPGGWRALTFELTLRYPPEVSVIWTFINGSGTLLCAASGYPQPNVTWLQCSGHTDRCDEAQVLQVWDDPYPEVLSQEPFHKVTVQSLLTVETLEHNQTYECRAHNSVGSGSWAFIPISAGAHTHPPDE
Assay: BLI (Octet RED 384), antibody-like molecule on ProA sensors, hCSF1R_His analyte 174.2 nM, 1:1 model
Protocol: as §1, §3, §2

| Kd [nM] | koff [s⁻¹] | kon [M⁻¹ s⁻¹] | Binder |
| --- | --- | --- | --- |
| 1.44 | 0.000238 | 165000 | B4 |
| 1.4 | 0.000253 | 181000 | B3 |
| 2.23 | 0.000443 | 199000 | B5 |
